Measurements: the supplement of paper PMC10567573

B1: MFF (parent)
chain: MAEISRIQYEMEYTEGISQRMRVP

Variants of: B1
Experiment: protein stability index of a GFP-peptide fusion (GPS, HEK-293T) (PSI 1-6); higher = more stable
Settings: c terminus: a fixed tail appended
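Note: lentivirally expressed fusions sorted by FACS into six bins by GFP to DsRed ratio, PSI derived from sequencing read proportions per bin multiplied by bin number.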

Variant	protein stability index
MAEISRIQIEMEYTEGISQRMRVP [Y9I]	1.71
MAEISRIQCEMEYTEGISQRMRVP [Y9C]	2.78
MAEISRIQREMEYTEGISQRMRVP [Y9R]	2.88
MAEISRIQVEMEYTEGISQRMRVP [Y9V]	2.15
MAEISRIQYEMEYTEGISSRMRVP [Q19S]	2.56
MAEISRIQYEMEYTEGISDRMRVP [Q19D]	3.16
MAEISRIQYEMEYTEGISYRMRVP [Q19Y]	1.81
MAEISRIQYEMEYTEGISIRMRVP [Q19I]	1.89
MAEISRIQYEMEYTEGISFRMRVP [Q19F]	1.56
MAEISRIQYEMEYTEGISKRMRVP [Q19K]	2.44
MAEISRIQYEMEYTEGISQRMRVC [P24C]	1.93
MAEISRIQYEMEYTEGISQRMRVV [P24V]	1.84
MAEISRIQYEMEYTEGISQRMRVQ [P24Q]	2.75
MAEISRIQYEMEYTEGISQRMRVW [P24W]	1.32
MAEISRIQYEMEYTEGISQRMRVM [P24M]	2.21
MAEISRGQYEMEYTEGISQRMRVP [I7G]	3.03
MAEISRAQYEMEYTEGISQRMRVP [I7A]	3.22
MAEISRNQYEMEYTEGISQRMRVP [I7N]	3.6
MAEISRIQYEMEYTEGCSQRMRVP [I17C]	2.92
MAQISRIQYEMEYTEGISQRMRVP [E3Q]	2.07
MASISRIQYEMEYTEGISQRMRVP [E3S]	1.85
MAWISRIQYEMEYTEGISQRMRVP [E3W]	1.57
MALISRIQYEMEYTEGISQRMRVP [E3L]	1.77
MAPISRIQYEMEYTEGISQRMRVP [E3P]	3.31

Variant	protein stability index
MADISRIQYEMEYTEGISQRMRVP [E3D]	2.58
MAEISLIQYEMEYTEGISQRMRVP [R6L]	1.71
MAEISDIQYEMEYTEGISQRMRVP [R6D]	3.28
MAEISWIQYEMEYTEGISQRMRVP [R6W]	1.95
MAEISCIQYEMEYTEGISQRMRVP [R6C]	2.97
MAEISMIQYEMEYTEGISQRMRVP [R6M]	2.41
MAEISFIQYEMEYTEGISQRMRVP [R6F]	2.06
MAEISRIDYEMEYTEGISQRMRVP [Q8D]	2.85
MAEISRINYEMEYTEGISQRMRVP [Q8N]	2.85
MAEISRIIYEMEYTEGISQRMRVP [Q8I]	2.52
MAEIYRIQYEMEYTEGISQRMRVP [S5Y]	1.6
MAEINRIQYEMEYTEGISQRMRVP [S5N]	2.53
MAEIMRIQYEMEYTEGISQRMRVP [S5M]	1.34
MAEIPRIQYEMEYTEGISQRMRVP [S5P]	3.52
MAEISRIQYEIEYTEGISQRMRVP [M11I]	2.16
MAEISRIQYEVEYTEGISQRMRVP [M11V]	2.89
MAEISRIQYEREYTEGISQRMRVP [M11R]	3.19
MAEISRIQYEMEDTEGISQRMRVP [Y13D]	3.95
MAEISRIQYEMELTEGISQRMRVP [Y13L]	2.62
MAEISRIQYEMENTEGISQRMRVP [Y13N]	3.45
MAEISRIQYEMEFTEGISQRMRVP [Y13F]	2.41
MAEISRIQYEMETTEGISQRMRVP [Y13T]	3.46
MAEISRIQYEMEQTEGISQRMRVP [Y13Q]	3.35
MAEISRIQYEMEYTQGISQRMRVP [E15Q]	2.42

Variant	protein stability index
MAEISRIQYEMEYTVGISQRMRVP [E15V]	1.62
MAEISRIQYEMEYTKGISQRMRVP [E15K]	2.43
MAEISRIQYEMEYTHGISQRMRVP [E15H]	2.21
MAEISRIQYEMEYTEGICQRMRVP [S18C]	2.41
MAEISRIQYEMEYTEGIEQRMRVP [S18E]	3.04
MAEISRIQYEMEYTEGIAQRMRVP [S18A]	1.56
MAEISRIQYEMEYTEGISQRARVP [M21A]	3.17
MAEISRIQYEMEYTEGISQRLRVP [M21L]	2.26
MAEISRIQYEMEYTEGISQRERVP [M21E]	3.58
MAEISRIQYEMEYTEGISQRNRVP [M21N]	3.32
MAEISRIQYEMEYTEGISQRCRVP [M21C]	2.32
MAEHSRIQYEMEYTEGISQRMRVP [I4H]	3.34
MAELSRIQYEMEYTEGISQRMRVP [I4L]	2.99
MAEISRIQYEMKYTEGISQRMRVP [E12K]	2.64
MAEISRIQYEMGYTEGISQRMRVP [E12G]	2.26
MAEISRIQYEMMYTEGISQRMRVP [E12M]	1.84
MAEISRIQYEMDYTEGISQRMRVP [E12D]	2.53
MAEISRIQYEMWYTEGISQRMRVP [E12W]	2.12
MAEISRIQYEMNYTEGISQRMRVP [E12N]	2.4
MAEISRIQYEMEYTEGISQRMFVP [R22F]	1.69
MAEISRIQYEMEYTEGISQRMSVP [R22S]	2.44
MAEISRIQYEMEYTEGISQRMHVP [R22H]	2.46
MAEISRIQYEMEYTEGISQRMLVP [R22L]	2.48
MAEISRIQYEMEYTEGISQRMYVP [R22Y]	2.23

Variant	protein stability index
MAEISRIQYEMEYTEGISQRMGVP [R22G]	2.46
MGEISRIQYEMEYTEGISQRMRVP [A2G]	3.03
MDEISRIQYEMEYTEGISQRMRVP [A2D]	2.83
MSEISRIQYEMEYTEGISQRMRVP [A2S]	2.5
MYEISRIQYEMEYTEGISQRMRVP [A2Y]	1.95
MHEISRIQYEMEYTEGISQRMRVP [A2H]	2.45
MVEISRIQYEMEYTEGISQRMRVP [A2V]	1.96
MAEISRIQYEMEYTEGISQRMRDP [V23D]	3.23
MAEISRIQYEMEYTEGISQKMRVP [R20K]	2.72
MAEISRIQYEMEYTEGISQLMRVP [R20L]	2.1
AAEISRIQYEMEYTEGISQRMRVP [M1A]	2.92
DAEISRIQYEMEYTEGISQRMRVP [M1D]	3.56
NAEISRIQYEMEYTEGISQRMRVP [M1N]	3.16
VAEISRIQYEMEYTEGISQRMRVP [M1V]	2.85
HAEISRIQYEMEYTEGISQRMRVP [M1H]	2.92
MAEISRIQYQMEYTEGISQRMRVP [E10Q]	2.76
MAEISRIQYNMEYTEGISQRMRVP [E10N]	2.55
MAEISRIQYFMEYTEGISQRMRVP [E10F]	1.96
MAEISRIQYRMEYTEGISQRMRVP [E10R]	2.05
MAEISRIQYEMEYLEGISQRMRVP [T14L]	2.07
MAEISRIQYEMEYMEGISQRMRVP [T14M]	2.2
MAEISRIQYEMEYFEGISQRMRVP [T14F]	1.65
